The target in this assay is SARS-CoV-2 Spike on pseudotyped virus (PsV) (SARS-CoV-2) (UniProt P0DTC2). The experiment in a line: cell-based or functional assay.

Substance “REGN10933 (recombinant mAb, reference IgG) (antibody)” had a Median IC50, SARS-CoV-2 PsV neutralization of 0.0044 µg/mL.

As to “REGN10987 (recombinant mAb, reference IgG) (antibody)”, the Median IC50, SARS-CoV-2 PsV neutralization worked out at 0.03 µg/mL.

The values are drawn from US20250263469A1.
